The text below walks through data of patent publication US20070134236A1 (Biogen, published 2007).

For experiment [1], the target named is T1, human MCP-1 (human, UniProt P13500 24-99).
T1 construct: also called hMCP-1; huMCP-1
As to the kind of experiment: KinExA, in solution, Fab. The method, then: (§1) 1 ml of MCP-1 at a concentration of 10 μg/ml in NaHCO₃ was added to an amount of beads equivalent to 1 ml of the original slurry. The beads were rocked overnight at 4° C. Beads were spun down and washed once with 1M Tris, pH 8.0, then resuspended in 1M Tris pH 8.0 with 1% BSA, 0.02% azide. The beads were rocked at room temperature for one hour then stored at 4° C. in this buffer for the duration of the experiments.
(§2) The KinExA 3000 measures protein-protein interaction in solution, and is ideally suited for measuring affinities of antibodies to antigens. In the typical experiment, antigen (MCP) is immobilized on a bead, antibody is flowed over a column of these beads at a given concentration, and the antibody that binds to the beads is detected using a fluorescent secondary. Antibody at a fixed concentration is then incubated with different concentrations of antigen in solution and the amount of free antibody is measured by flowing the mixture over the bead column quickly enough that no re-equilibration occurs between solution and solid phase. The amount of antibody remaining free is plotted against the concentration of antigen added and the data are fit to a quadratic equation to determine the affinity of the interaction in solution.
(§3) In these experiments, the only difference to the typical experiment described above is that instead of using intact antibody, a Fab fragment of 11K2 was used. Earlier KimExA experiments using the intact murine 11K2 mAb binding to MCP-1 and MCP-2 gave biphasic curves that the software could not interpret. This may be due to these proteins acting as dimers, so to eliminate the dimer/dimer interaction we generated Fab fragments. The binding of the 11K2 Fab fragments to MCP-1 and MCP-2 produced curves that the KinExA software could fit.
In general terms: In KinExA the mixture passes briefly over coated beads that capture the unbound partner.

Experiment [2] has as its target T2, human MCP-2 (human, UniProt P80075 24-99).
T2 construct: also called hMCP-2; huMCP-2
T2 sequence (looked up): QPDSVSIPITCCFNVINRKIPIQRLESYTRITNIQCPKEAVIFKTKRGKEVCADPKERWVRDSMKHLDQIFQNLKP
Description: KinExA, in solution, Fab. The method, then:
as §1, §2, §3

Experiment [3] concerns the target T2, human MCP-2. As to the kind of experiment: ELISA on immobilised MCP-2, absorbance 450 nm. (In general: In an ELISA, binding on a coated surface is turned into a signal by an enzyme label.)
In experiment [4] the target is T1, human MCP-1. As to the kind of experiment: ELISA on plate-coated human MCP-1, anti-human IgG-HRP; y axis unlabelled, OD 405 nm per paragraph 382. As to the method:
Binding specificities of chimeric 11K2 and the four versions of humanized 11K2 (H1-L1, H1-L2, H2-L1, and H2-L2) were determined by ELISA, according to the protocol described in Example 1.
ELISA plates (Corning, Inc. Cat#3369) were coated with 50 ng MCP-1 per well overnight at 4° C. Plates were washed then blocked with PBS/5% milk for 1.5 hrs at 25° C. Another wash was followed by incubation with the 11K2 mAbs (or 3G9 isotype control) at the concentrations indicated for 1 hr at 25° C. After washing, the plates were incubated with secondary antibody (anti-human IgG-HRP, Jackson Immunoresearch Cat#109-036-088) for 1 hr at 25° C. Plates were then washed and developed using the ABTS Peroxidase Substrate Kit (Vector Laboratories Cat#SK-4500). OD (405 nm) values were plotted as a function of 11K2 mAb concentration.

The target of experiment [5] is T3, human MCP-3 (human, UniProt P80098 24-99).
T3 construct: also called hMCP-3
As to the kind of experiment: ELISA.

As a reminder, the Kd is a measure of binding affinity in units of concentration. As usually defined, the EC50 (read off the curve) is the concentration that produces a half-maximal response. The low end stands for a more potent agent, the high end for a less potent agent.

B1: Fab fragment of chimeric 11K2 (Fab, V domains shown)
VH: EVQLQQSGAELVKAGASVKLSCPASGLNIKDTYMHWVKQRPEQGLEWIGRIDPANGNTKFDPKFQGKATITADTSSNTAYLQLSSLTSEDTAVYYCARGVFGFFDYWGQGTTLTVSS
VL: DIQMTQSSSSFSVSLGDRVTITCKATEDIYNRLAWYQQKPGSAPRLLISGATSLETGVPSRFSGSGSGKDYTLSITSLQTEDVATYYCQQFWSAPYTFGGGTKLEIKR
notes: also called Ch11K2
With B1, the Kd was 0.0196 nM in experiment [1] and 0.226 nM in experiment [2].

B2: humanized 11K2 H1-L2 (antibody, human IgG1, V domains shown)
VH: QVQLVQSGAEVKKPGSSVKVSCKASGLNIKDTYMHWVRQAPGQGLEWIGRIDPANGNTKFDPKFQGRATITADTSTSTAYMELSSLRSEDTAVYYCARGVFGFFDYWGQGTTVTVSS
VL: DIQMTQSPSSLSASVGDRVTITCKATEDIYNRLAWYQQKPGKAPKLLISGATSLETGVPSRFSGSGSGTDYTLTISSLQPEDFATYYCQQFWSAPYTFGGGTKVEIKR
notes: human IgG1 kappa
Consider B2, for which the concentration for a half-maximal effect (EC50 (read off the curve)) in experiment [3] was approximately 0.3 µg/mL; in experiment [4], approximately 0.02 µg/mL. Also, in experiment [5], the binding result was “no binding”.

B3: Fab fragment of humanized 11K2 H1L1 (Fab, V domains shown)
VH: QVQLVQSGAEVKKPGSSVKVSCKASGLNIKDTYMHWVRQAPGQGLEWIGRIDPANGNTKFDPKFQGRATITADTSTSTAYMELSSLRSEDTAVYYCARGVFGFFDYWGQGTTVTVSS
VL: DIQMTQSPSSLSASVGDRVTITCKATEDIYNRLAWYQQKPGKAPKLLISGATSLETGVPSRFSGSGSGKDYTLTISSLQPEDFATYYCQQFWSAPYTFGGGTKVEIKR
As for B3, the Kd in experiment [1] was determined as 0.0364 nM; in experiment [2], 0.725 nM.

B4: Fab fragment of humanized 11K2 H2L2 (Fab, V domains shown)
VH: QVQLVQSGAEVKKPGSSVKVSCKASGLTISDTYMHWVRQAPGQGLEWMGRIDPANGNTKFDPKFQGRVTITADTSTSTAYMELSSLRSEDTAVYYCARGVFGFFDYWGQGTTVTVSS
VL: DIQMTQSPSSLSASVGDRVTITCKATEDIYNRLAWYQQKPGKAPKLLISGATSLETGVPSRFSGSGSGTDYTLTISSLQPEDFATYYCQQFWSAPYTFGGGTKVEIKR
As for B4, the Kd in experiment [1] worked out at 0.0775 nM; in experiment [2], 3.2 nM.

B5: humanized 11K2 H2-L2 (antibody, human IgG1, V domains shown)
VH: QVQLVQSGAEVKKPGSSVKVSCKASGLTISDTYMHWVRQAPGQGLEWMGRIDPANGNTKFDPKFQGRVTITADTSTSTAYMELSSLRSEDTAVYYCARGVFGFFDYWGQGTTVTVSS
VL: DIQMTQSPSSLSASVGDRVTITCKATEDIYNRLAWYQQKPGKAPKLLISGATSLETGVPSRFSGSGSGTDYTLTISSLQPEDFATYYCQQFWSAPYTFGGGTKVEIKR
notes: human IgG1 kappa
On to B5, for which the “EC50 (read off the curve)” value was approximately 0.3 µg/mL in experiment [3] and approximately 0.02 µg/mL in experiment [4]. Also, in experiment [5], the binding result was “no binding”.

B6: Fab fragment of humanized 11K2 H2L1 (Fab, V domains shown)
VH: QVQLVQSGAEVKKPGSSVKVSCKASGLTISDTYMHWVRQAPGQGLEWMGRIDPANGNTKFDPKFQGRVTITADTSTSTAYMELSSLRSEDTAVYYCARGVFGFFDYWGQGTTVTVSS
VL: DIQMTQSPSSLSASVGDRVTITCKATEDIYNRLAWYQQKPGKAPKLLISGATSLETGVPSRFSGSGSGKDYTLTISSLQPEDFATYYCQQFWSAPYTFGGGTKVEIKR
In the case of B6, the Kd in experiment [1] stood at 0.064 nM; in experiment [2], 0.94 nM.

B7: Fab fragment of humanized 11K2 H1L2 (Fab, V domains shown)
VH: QVQLVQSGAEVKKPGSSVKVSCKASGLNIKDTYMHWVRQAPGQGLEWIGRIDPANGNTKFDPKFQGRATITADTSTSTAYMELSSLRSEDTAVYYCARGVFGFFDYWGQGTTVTVSS
VL: DIQMTQSPSSLSASVGDRVTITCKATEDIYNRLAWYQQKPGKAPKLLISGATSLETGVPSRFSGSGSGTDYTLTISSLQPEDFATYYCQQFWSAPYTFGGGTKVEIKR
B7: the Kd in experiment [1] was found to be 0.0623 nM; in experiment [2] it was 0.712 nM.
